We go through 18 molecules from US20160304858A1.

First the molecules themselves.
B1: glycopeptide 10F2 (Fixed library, round 10), ribosomally translated (peptide)
peptide: For-[Hpra′](Man9″)HPYNTSRTSA[Hpra′](Man9″)[Hpra′](Man9″)AALK[Hpra′](Man9″)QVTD[Hpra′](Man9″)YALALFHRILGSGSLGHHHHHHRDYKDDDDK
B2: glycopeptide 10F6 (Fixed library, round 10) (peptide)
peptide: For-[Hpra′](Man9(3))L[Hpra′](Man9(3))FIRIYPTR[Hpra′](Man9(3))QYVYHAPLLT[Hpra′](Man9(3))VR[Hpra′](Man9(3))SPTGPLIGSGSLGHHHHHHRDYKDDDDK
B3: glycopeptide 10F3 -C15S (peptide)
peptide: For-[Hpra′](Man9)DTLHLKQIGG[Hpra′](Man9)PNSITQQDVR[Hpra′](Man9)TSIPYTYTWPGSGSLGHHHHHHRDYKDDDDK
B4: glycopeptide 10V1-Δ9 (peptide)
peptide: For-[Hpra′](Man9(3))RSIPWYTYRWLPNGSGSLGHHHHHHRDYKDDDDK
B5: glycopeptide 10F5-C10,25S (peptide)
peptide: For-[Hpra′](Man9(3))SPHLPVLLSK[Hpra′](Man9(3))VLNDGRRIVQ[Hpra′](Man9(3))SSELP[Hpra′](Man9(3))VRRSGSGSLGHHHHHHRDYKDDDDK
B6: glycopeptide 10F12-C2,21S (peptide)
peptide: For-[Hpra′](Man9″)SYVTVIPA[Hpra′](Man9″)N[Hpra′](Man9″)PEARLGIVSH[Hpra′](Man9″)PGIRRGKALYGSGSLGHHHHHHRDYKDDDDK
B7: glycopeptide 10F3 (Fixed library, round 10) (peptide)
peptide: For-[Hpra′](Man9(3))DTLHLKQIGG[Hpra′](Man9(3))PNCITQQDVR[Hpra′](Man9(3))TSIPYTYTWPGSGSLGHHHHHHRDYKDDDDK
B8: glycopeptide 10F8 (Fixed library, round 10) (peptide)
peptide: For-[Hpra′](Man9(3))LLK[Hpra′](Man9(3))VDQSRL[Hpra′](Man9(3))PVPGIGVTLH[Hpra′](Man9(3))RSIPYSYLPIGSGSLGHHHHHHRDYKDDDDK
B9: glycopeptide 10F3-Δ11 (peptide)
peptide: For-[Hpra′](Man9(3))PNCITQQDVR[Hpra′](Man9(3))TSIPYTYTWPGSGSLGHHHHHHRDYKDDDDK
B10: glycopeptide 10V8 (Variable library, round 10) (peptide)
peptide: For-[Hpra′](Man9(3))VLPTIISTNVNPFR[Hpra′](Man9(3))LSIPTYTYL[Hpra′](Man9(3))PITWGEIGSGSLGHHHHHHRDYKDDDDK
B11: glycopeptide 10F2-Δ11 (peptide)
peptide: For-[Hpra′](Man9(3))[Hpra′](Man9(3))AALK[Hpra′](Man9(3))QVTD[Hpra′](Man9(3))YALALFHRILGSGSLGHHHHHHRDYKDDDDK
B12: glycopeptide 10V9 (Variable library, round 10) (peptide)
peptide: For-[Hpra′](Man9(3))TSIPYTYLNRSLWTNYRVNSWS[Hpra′](Man9(3))SKNVNV[Hpra′](Man9(3))PLGSGSLGHHHHHHRDYKDDDDK
B13: glycopeptide 10F12 (Fixed library, round 10) (peptide)
peptide: For-[Hpra′](Man9″)CYVTVIPA[Hpra′](Man9″)N[Hpra′](Man9″)PEARLGIVCH[Hpra′](Man9″)PGIRRGKALYGSGSLGHHHHHHRDYKDDDDK
modifications: not fully specified (bridges); cysteine pairing not given here
B14: glycopeptide 10F5-Δ11 (peptide)
peptide: For-[Hpra′](Man9(3))VLNDGRRIVQ[Hpra′](Man9(3))SCELP[Hpra′](Man9(3))VRRSGSGSLGHHHHHHRDYKDDDDK
B15: glycopeptide 10F5 (Fixed library, round 10) (peptide)
peptide: For-[Hpra′](Man9(3))SPHLPVLLCK[Hpra′](Man9(3))VLNDGRRIVQ[Hpra′](Man9(3))SCELP[Hpra′](Man9(3))VRRSGSGSLGHHHHHHRDYKDDDDK
modifications: cysteine pairing not given here
B16: glycopeptide 10V1 (Variable library, round 10) (peptide)
peptide: For-[Hpra′](Man9(3))ATKTNCKREKT[Hpra′](Man9(3))DNHVTI[Hpra′](Man9(3))RSIPWYTYRWLPNGSGSLGHHHHHHRDYKDDDDK
B17: glycopeptide 10F9 (Fixed library, round 10) (peptide)
peptide: For-[Hpra′](Man9(3))RSTLNSLEYR[Hpra′](Man9(3))QYATEDPRIR[Hpra′](Man9(3))ASIPYTYWWPGSGSLGHHHHHHRDYKDDDDK
B18: biotinylated synthetic 10F2 glycopeptide 3 (peptide)
peptide: For-[Hpra′](Man9″)HPYNTSRTSA[Hpra′](Man9″)[Hpra′](Man9″)AALK[Hpra′](Man9″)QVTD[Hpra′](Man9″)YALALFHRILGSGSGC(maleimide‑biotin)A

Primed or numbered codes have the meaning given here. Where no end group is shown, it is not given here. [ ]: non-standard residue; d: D form. The star is where a group is joined. Hpra′ = its azide, alkyne or alkene has reacted where a group follows in round brackets; maleimide‑biotin = maleimide-biotin reagent joined to deprotected Cys; Man9″ = Man9 glycan attached to Hpg by CuAAC click with Man9-azide; Man9(3) = Man9-azide click-glycosylated onto Hpg; For = O=C* Where only a bound is given, the exact number is not on record here.

The target in one experiment is HIV broadly neutralizing antibody 2G12. Kind of experiment: radiolabelled glycopeptide with 2G12, protein G bead capture (end tied by Table 4).
What is called Kd is the constant that tells how readily two partners part at equilibrium. The low end stands for higher affinity, the high end for lower affinity. Take B1: the Kd was 0.5 to 0.6 nM.
The same measure, in the same setting: to B2 belongs 0.5 to 0.6 nM.

A further experiment has the same target. Kind of experiment: radiolabelled glycopeptide with 2G12 in solution, protein G bead capture, scintillation counting.
In turn, B3 returned an Fmax of 63% and a Kd of 2.91 nM.
In turn, B4 showed an Fmax of 20% and a Kd of 7.5 nM.
The matching figures for B5: 94% and 2.5 nM.
The matching figures for B6: 90% and 186 nM.
The matching figures for B7: 100% and 3 nM.
B8 gave an Fmax of 97% and a Kd of 2.6 nM.
The like results for B1 were, in that order, 86% and 0.6 nM.
The like results for B2 were, in that order, 87% and 0.54 nM.
B9 yielded an Fmax of 32% and a dissociation constant Kd of 25 nM.
B10 displayed an Fmax of 94% and a Kd of 4.6 nM.
B11 displayed an Fmax of 70% and a Kd of 0.89 nM.
The molecule B12 returned an Fmax of 85% and a Kd of 3.9 nM.
Turning to B13, the Fmax was 90% and the Kd is 0.77 nM.
With B14, the Fmax came out at 17% and the Kd is over 200 nM.
The molecule B15 came in with an Fmax of 93% and a Kd of 0.97 nM.
The like results for B16 were, in that order, 97% and 1.9 nM.
In turn, B17 came in with an Fmax of 86% and a dissociation constant Kd of 3.1 nM.

A further experiment has the same target. Kind of experiment: BLI (BLItz), glycopeptide on streptavidin sensor, 2G12 in solution, global 1:1 fit.
The term koff denotes the first-order rate constant of dissociation. The low end stands for a long-lived complex, the high end for a short-lived complex. The kon is the rate constant with which the complex forms. B18 registered a Kd of 1.37 nM, a koff of 0.000151 s⁻¹ and a kon of 111000 M⁻¹ s⁻¹.

Another experiment shares this target. Kind of experiment: BLI curve fit, 4 nM 2G12.
As for B18, the Req was found to be 1.26.

For a further experiment the target is unchanged. Kind of experiment: radiolabelled glycopeptide with 2G12, protein G bead capture; low end tied to 10F6 by Table 4.
Molecule B2 displayed a Kd of 0.5 to 5 nM.

The target is the same in a further experiment. Kind of experiment: BLI curve fit, 32 nM 2G12.
Molecule B18 showed a Req of 1.39.

For the next experiment the target is unchanged. Kind of experiment: BLI curve fit, 8 nM 2G12.
B18 yielded a Req of 1.37.

The target is the same in another experiment. Kind of experiment: BLI curve fit, 1 nM 2G12.
Molecule B18 registered a Req of 0.682.

The target is the same in another experiment. Kind of experiment: BLI curve fit, 2 nM 2G12.
Take B18: the Req was 0.987.

A further experiment has the same target. Kind of experiment: BLI curve fit, 16 nM 2G12.
As for B18, the Req stood at 1.41.

Another experiment has the same target. Kind of experiment: radiolabelled glycopeptide with 2G12, protein G bead capture; high end tied to 10V8 by Table 4.
Regarding B10, the Kd lay in the range of 0.5 to 5 nM.

A further experiment shares this target. Kind of experiment: BLI curve fit, 0.5 nM 2G12.
In turn, B18 gave a Req of 0.481.
